Experimental data: IntAct's records for PubMed 17446860

B1: Ubiquitin carboxyl-terminal hydrolase 4 (Saccharomyces cerevisiae), P32571 (parent)
chain: MEQNIISTIRDECIRHRSKYLTIAQLTAIAEAKINEFIITGKAKDQDLSSLLDKCIDILSIYKKNSKDIKNIISCKNKGAMISSNSVMIIQLNYVYYKVIHIIVTTNIPHLSEFAKIKLHKSTSDEGNGNNNNNEFQLMNIYNTLLETLLKDENIAKIKSFIKSSIKQTKLNHEQEECNLMRTGSYITSNQLNSLISSSANSASSQMEILLIDIRSRLEFNKSHIDTKNIICLEPISFKMSYSDHDLEKKSLITSPNSEIKMFQSRNLFKFIILYTDANEYNVKQQSVLLDILVNHSFEKPISDDFTKIFILESGFPGWLKSNYGRQVSSSFPSNNNIKDDSVYINGNTSGLSLQHLPKMSPSIRHSMDDSMKEMLVAPTPLNHLQQQQQQQSDNDHVLKRSSSFKKLFSNYTSPNPKNSNSNLYSISSLSISSSPSPLPLHSPDPVKGNSLPINYPETPHLWKNSETDFMTNQREQLNHNSFAHIAPINTKAITSPSRTATPKLQRFPQTISMNLNMNSNGHSSATSTIQPSCLSLSNNDSLDHTDVTPTSSHNYDLDFAVGLENLGNSCYMNCIIQCILGTHELTQIFLDDSYAKHININSKLGSKGILAKYFARLVHMMYKEQVDGSKKISISPIKFKLACGSVNSLFKTASQQDCQEFCQFLLDGLHEDLNQCGSNPPLKELSQEAEARREKLSLRIASSIEWERFLTTDFSVIVDLFQGQYASRLKCKVCSHTSTTYQPFTVLSIPIPKKNSRNNITIEDCFREFTKCENLEVDEQWLCPHCEKRQPSTKQLTITRLPRNLIVHLKRFDNLLNKNNDFVIYPFLLDLTPFWANDFDGVFPPGVNDDELPIRGQIPPFKYELYGVACHFGTLYGGHYTAYVKKGLKKGWLYFDDTKYKPVKNKADAINSNAYVLFYHRVYGV
partner: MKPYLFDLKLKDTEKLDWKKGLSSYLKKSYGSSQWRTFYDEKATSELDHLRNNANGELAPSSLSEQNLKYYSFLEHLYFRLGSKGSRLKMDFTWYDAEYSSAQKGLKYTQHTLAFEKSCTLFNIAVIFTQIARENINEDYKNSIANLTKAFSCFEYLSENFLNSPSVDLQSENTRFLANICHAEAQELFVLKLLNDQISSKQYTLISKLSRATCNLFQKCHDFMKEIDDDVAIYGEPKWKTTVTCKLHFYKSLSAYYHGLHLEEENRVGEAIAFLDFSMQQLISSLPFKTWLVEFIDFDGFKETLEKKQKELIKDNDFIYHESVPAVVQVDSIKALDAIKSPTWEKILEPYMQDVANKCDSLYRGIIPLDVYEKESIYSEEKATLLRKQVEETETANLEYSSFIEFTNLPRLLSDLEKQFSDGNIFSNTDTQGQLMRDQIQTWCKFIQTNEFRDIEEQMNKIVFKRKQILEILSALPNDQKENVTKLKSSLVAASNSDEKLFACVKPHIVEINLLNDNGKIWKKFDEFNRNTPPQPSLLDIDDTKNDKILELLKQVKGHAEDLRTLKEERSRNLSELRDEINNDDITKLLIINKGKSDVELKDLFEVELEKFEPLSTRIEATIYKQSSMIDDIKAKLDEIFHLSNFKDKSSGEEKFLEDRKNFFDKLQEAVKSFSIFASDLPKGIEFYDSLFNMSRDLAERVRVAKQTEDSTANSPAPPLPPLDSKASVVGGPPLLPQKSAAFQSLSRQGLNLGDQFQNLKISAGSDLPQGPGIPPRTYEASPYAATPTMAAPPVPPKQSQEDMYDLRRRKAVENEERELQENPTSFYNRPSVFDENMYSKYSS
B2: Vacuolar-sorting protein BRO1 (Saccharomyces cerevisiae), P48582 (parent)
chain: B1 partner
partner: B1 chain

Variants of: B1
Conditions: with bro1_yeast BRO1, P48582

Variant | effect of a mutation on the interaction
P827A | disrupting interaction

Variants of: B1
Conditions: with bro1_yeast BRO1, P48582
Remark: another data set of the same source

Variant | effect of a mutation on the interaction
Y826A | disrupting interaction

Variants of: B1
Conditions: with bro1_yeast BRO1, P48582
Remark: another data set of the same source

Variant | effect of a mutation on the interaction
L829A | disrupting interaction

Variants of: B1
Conditions: with bro1_yeast BRO1, P48582
Remark: another data set of the same source

Variant | effect of a mutation on the interaction
V824A | disrupting interaction

Variants of: B1
Conditions: with bro1_yeast BRO1, P48582
Remark: another data set of the same source

Variant | effect of a mutation on the interaction
I825A | decreasing interaction

Variants of: B1
Conditions: with bro1_yeast BRO1, P48582
Remark: another data set of the same source

Variant | effect of a mutation on the interaction
L830A | disrupting interaction

Variants of: B2
Conditions: with ubp4_yeast DOA4, P32571

Variant | effect of a mutation on the interaction
P831A | disrupting interaction

Variants of: B2
Conditions: with ubp4_yeast DOA4, P32571
Remark: another data set of the same source

Variant | effect of a mutation on the interaction
S832A | disrupting interaction

Variants of: B2
Conditions: with ubp4_yeast DOA4, P32571
Remark: another data set of the same source

Variant | effect of a mutation on the interaction
V833A | disrupting interaction

Variants of: B2
Conditions: with ubp4_yeast DOA4, P32571
Remark: another data set of the same source

Variant | effect of a mutation on the interaction
F834A | disrupting interaction
